The target of test [1] is T1, human IL-4Rα on cells (human, UniProt P24394 26-825). Put plainly: cell-based or functional assay.
For test [2], the target named is T1, human IL-4Rα on cells. The test is described as follows: cell-based or functional assay. The source holds these as a separate data set.
For test [3], the target named is T1, human IL-4Rα on cells. The test is described as follows: cell-based or functional assay. This is another data set of the same source.
Test [4] concerns the target T1, human IL-4Rα on cells. The test is described as follows: cell-based or functional assay. This is another data set of the same source.
Test [5] has as its target T1, human IL-4Rα on cells. Put plainly: flow cytometry on CHO-K1 cells overexpressing hIL-4Rα.
Test [6] deals with T2, hIL-4Rα.ECD (human, UniProt P24394 26-232).
T2 construct: extracellular domain; also called hIL-4Rα protein
Put plainly: SPR (Biacore 8K), antibody captured, hIL-4Rα.ECD analyte, 25°C. (In general: Surface plasmon resonance follows binding to a sensor surface in real time, without labels.)

For test [7], the target named is T2, hIL-4Rα.ECD. The test is described as follows: SPR, antibody captured by anti-human Fc on CM5, hIL-4Rα.ECD analyte.
In test [8] the target is T1, human IL-4Rα on cells. Put plainly: cell-based or functional assay. The source holds these as a separate data set.
Test [9] addresses T3, hTSLP (human, UniProt Q969D9 29-159). Put plainly: cell-based or functional assay.
Test [10] has as its target T3, hTSLP. Put plainly: SPR (Biacore 8K), antibody captured, hTSLP analyte, 25°C.
In test [11] the target is T2, hIL-4Rα.ECD. The test is described as follows: SPR (Biacore 8K), method same as 1.9, hIL-4Rα.ECD analyte.
The target in test [12] is T2, hIL-4Rα.ECD. Put plainly: SPR (Biacore 8K), antibody captured by anti-mouse Fc, hIL-4Rα.ECD analyte, 25°C.

This is an account of results in patent EP4814012A1 (The United Bio-Technology (Hengqin) Co., Ltd., dated 2026).

B1: Dupilumab (antibody, V domains shown)
VH: EVQLVESGGGLEQPGGSLRLSCAGSGFTFRDYAMTWVRQAPGKGLEWVSSISGSGGNTYYADSVKGRFTISRDNSKNTLYLQMNSLRAEDTAVYYCAKDRLSITIRPRYYGLDVWGQGTTVTVSS
VL: DIVMTQSPLSLPVTPGEPASISCRSSQSLLYSIGYNYLDWYLQKSGQSPQLLIYLGSNRASGVPDRFSGSGSGTDFTLKISRVEAEDVGFYYCMQALQTPYTFGQGTKLEIKR
By EC50 is commonly meant the concentration needed to bring the measured effect to its halfway point. Broadly, the Kd is a measure of binding affinity in units of concentration. High values mean lower affinity, low ones higher affinity. The koff is the rate constant with which the complex falls apart. Higher therefore signals fast dissociation. The kon is a measure of how fast the partners come together. The low end stands for slow association, the high end for fast association. For the molecule B1, in test [1], the “IC50 (nM), Cell-based Assay Data (hIL-13), STAT6-GFP reporter gene assay” value (from here on “IC50 (nM), Cell-based Assay Data”) amounted to 0.81 nM. Moreover, the “IC50(pM), hIL-4 Blocking Activity by Reporter Gene Assay” value (“IC50(pM), hIL-4 Blocking Activity” for short) in test [2] was 201 pM. In addition, the “IC50(pM), hIL-13 Blocking Activity, TF-1 proliferation inhibition assay” value (“IC50(pM) … TF-1 proliferation inhibition assay” below) in test [3] was found to be 140 pM. The “IC50 (pM), hIL-13 inhibitory activity, reporter gene assay (HEK-293T.STAT6-GFP cells)” value (from here on “IC50 (pM), hIL-13 inhibitory activity”) in test [4] worked out at 41 pM. Besides, the concentration giving a half-maximal response (EC50) in test [5] came out at 0.3 nM. In test [6], this molecule came in with a Kd of 0.0616 nM, a koff of 5.7e-05 s⁻¹ and a kon of 924000 M⁻¹ s⁻¹. In test [7], the Kd was 0.0379 nM, the koff amounted to 5.4e-05 s⁻¹ and the kon came to 1.43e+06 M⁻¹ s⁻¹.

B2: MTM (bispecific antibody, human IgG2, lambda)
heavy: QMQLVESGGGVVQPGRSLRLSCAASGFTFRTYGMHWVRQAPGKGLEWVAVIWYDGSNKHYADSVKGRFTITRDNSKNTLNLQMNSLRAEDTAVYYCARAPQWELVHEAFDIWGQGTMVTVSSASTKGPSVFPLAPCSRSTSESTAALGCLVKDYFPEPVTVSWNSGALTSGVHTFPAVLQSSGLYSLSSVVTVPSSNFGTQTYTCNVDHKPSNTKVDKTVERKCCVECPPCPAPPVAGPSVFLFPPKPKDTLMISRTPEVTCVVVDVSHEDPEVQFNWYVDGVEVHNAKTKPREEQFNSTFRVVSVLTVVHQDWLNGKEYKCKVSNKGLPAPIEKTISKTKGQPREPQVYTLPPSREEMTKNQVSLTCLVKGFYPSDIAVEWESNGQPENNYKTTPPMLDSDGSFFLYSKLTVDKSRWQQGNVFSCSVMHEALHNHYTQKSLSLSPGKGGGGSGGGGSQVQLVQSGAEVKKPGASVKVSCKASGYTFTTYYIYWVRQAPGQCLEWMGGSNPSTGGTLDNEKFKTRVTMTVDKSTSTAYMELSSLRSEDTAVYYCTRSGRYAPFTYWGCGTLVTVSSGGGGSGGGGSGGGGSGGGGSDIQMTQSPSSLSASVGDRVTITCKASQDVSTSVAWYQQKPGKAPKLLIYSASYRFTGVPSRFSGSGSGTDFTFTISSLQPEDFATYYCQHYSTTPFTFGCGTKLEIK
light: SYVLTQPPSVSVAPGQTARITCGGNNLGSKSVHWYQQKPGQAPVLVVYDDSDRPSWIPERFSGSNSGNTATLTISRGEAGDEADYYCQVWDSSSDHVVFGGGTKLTVLGQPKAAPSVTLFPPSSEELQANKATLVCLISDFYPGAVTVAWKADSSPVKAGVETTTPSKQSNNKYAASSYLSLTPEQWKSHRSYSCQVTHEGSTVEKTVAPTECS
notes: the junction should be checked against them; also called MTM bispecific antibody; MTM molecule
Take B2: the “IC50(pM), hIL-4 inhibitory activity, reporter gene assay (HEK-293T.STAT6-GFP cells)” value in [8] came to 170 pM. The “IC50 (pM), hIL-13 inhibitory activity” value in test [4] is 66.5 pM. Further, the “IC50 (nM), hTSLP inhibitory activity, reporter gene assay (HEK-293T-hTSLPR-IL7Ra-STAT5-Luciferase cells)” value in test [9] was 0.14 nM. Moreover, in test [10], binding was put at a Kd of 0.00296 nM, the koff amounted to 3.5e-05 s⁻¹ and the on-rate constant (kon) stood at 1.18e+07 M⁻¹ s⁻¹. For the same molecule, in test [6], the Kd was determined as 0.0659 nM, the off-rate constant (koff) was found to be 3.48e-05 s⁻¹ and the kon turned out to be 528000 M⁻¹ s⁻¹.

B3: MMT (bispecific antibody, human IgG4 S228P, kappa)
heavy: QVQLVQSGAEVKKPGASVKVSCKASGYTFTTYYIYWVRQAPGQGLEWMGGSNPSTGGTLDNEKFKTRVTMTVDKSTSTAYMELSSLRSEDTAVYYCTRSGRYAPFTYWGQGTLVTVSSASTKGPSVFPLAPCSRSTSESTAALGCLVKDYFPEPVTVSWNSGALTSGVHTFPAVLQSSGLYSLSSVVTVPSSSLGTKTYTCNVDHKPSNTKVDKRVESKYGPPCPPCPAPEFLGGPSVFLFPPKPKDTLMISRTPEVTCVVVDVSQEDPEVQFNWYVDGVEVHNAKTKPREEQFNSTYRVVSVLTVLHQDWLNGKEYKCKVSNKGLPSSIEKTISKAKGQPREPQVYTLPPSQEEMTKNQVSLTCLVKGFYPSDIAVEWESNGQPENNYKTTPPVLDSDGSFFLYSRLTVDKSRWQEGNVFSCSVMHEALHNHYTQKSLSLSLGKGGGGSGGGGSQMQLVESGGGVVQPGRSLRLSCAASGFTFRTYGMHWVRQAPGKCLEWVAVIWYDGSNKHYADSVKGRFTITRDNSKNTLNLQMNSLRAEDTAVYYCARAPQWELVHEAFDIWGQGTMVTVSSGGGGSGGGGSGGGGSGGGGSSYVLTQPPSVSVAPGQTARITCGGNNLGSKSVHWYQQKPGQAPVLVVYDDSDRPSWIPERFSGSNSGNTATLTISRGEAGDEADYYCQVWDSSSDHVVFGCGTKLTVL
light: DIQMTQSPSSLSASVGDRVTITCKASQDVSTSVAWYQQKPGKAPKLLIYSASYRFTGVPSRFSGSGSGTDFTFTISSLQPEDFATYYCQHYSTTPFTFGQGTKLEIKRTVAAPSVFIFPPSDEQLKSGTASVVCLLNNFYPREAKVQWKVDNALQSGNSQESVTEQDSKDSTYSLSSTLTLSKADYEKHKVYACEVTHQGLSSPVTKSFNRGEC
notes: the junction should be checked against them; also called MMT bispecific antibody; MMT molecule
Consider B3, for which the “IC50 (pM), hIL-13 inhibitory activity” value in test [4] was found to be 133 pM. Moreover, the “IC50 (nM), hTSLP inhibitory activity, reporter gene assay (HEK-293T-hTSLPR-IL7Ra-STAT5-Luciferase cells)” value in [9] is 0.3 nM. In test [10], this molecule showed a Kd of 0.0188 nM, a koff of 5.88e-05 s⁻¹ and an on-rate (kon) of 3.14e+06 M⁻¹ s⁻¹. Also, in [6], the Kd was found to be 0.0598 nM, the koff came to 4.35e-05 s⁻¹ and the on-rate (kon) is 727000 M⁻¹ s⁻¹.

B4: m8 (antibody, human IgG4 S228P, kappa, V domains shown)
VH: QVQLVQSGAEVKKPGASVKVSCKASGYTFTTYYIYWVRQAPGQGLEWMGGSNPSTGGTLDNEKFKTRVTMTVDKSTSTAYMELSSLRSEDTAVYYCTRSGRYAPFTYWGQGTLVTVSS
VL: DIQMTQSPSSLSASVGDRVTITCKASQDVSTSVAWYQQKPGKAPKLLIYSASYRFTGVPSRFSGSGSGTDFTFTISSLQPEDFATYYCQHYSTTPFTFGQGTKLEIKR
notes: also called m8 molecule; anti-IL-4R antibody m8
Regarding B4, the “IC50(pM), hIL-4 Blocking Activity” value in test [2] came to 16.4 pM. Also, in test [3], the “IC50(pM) … TF-1 proliferation inhibition assay” value was 125 pM. Also, the “IC50(pM), hIL-4 inhibitory activity, reporter gene assay (HEK-293T.STAT6-GFP cells)” value in [8] worked out at 210 pM. In addition, the “IC50 (pM), hIL-13 inhibitory activity” value in test [4] came to 80 pM. In test [6], this molecule displayed a dissociation constant (Kd) of 0.0489 nM, a koff of 1.39e-05 s⁻¹ and a kon of 285000 M⁻¹ s⁻¹. In addition, in test [7], the dissociation constant Kd was determined as 0.0437 nM, the off-rate constant (koff) amounted to 3.95e-05 s⁻¹ and the kon came to 903000 M⁻¹ s⁻¹.

B5: 1.34.4-z18 (antibody, human IgG4, V domains shown)
VH: QVQLVQSGAEVKKPGASVKVSCKASGYTFTTYYIYWVRQAPGQGLEWMGGSNPSTGGTLFNEKFKTRVTMTVDKSTSTAYMELSSLRSEDTAVYYCTRSGRYAPFTYWGQGTLVTVSS
VL: DIQMTQSPSSLSASVGDRVTITCKASQDVSTSVAWYQQKPGKAPKLLIYSASYRFTGVPSRFSGSGSGTDFTFTISSLQPEDFATYYCQQYSTTPFTFGQGTKLEIK
notes: Humanized with back-mutations; also called 1.34.4-z18 humanized antibody molecule
Turning to B5, in test [11], the affinity, expressed as Kd, was 0.567 nM; the koff was found to be 0.000137 s⁻¹; the kon worked out at 242000 M⁻¹ s⁻¹.

B6: 1.34.4 (humanized, CDR-grafted) (antibody, V domains shown)
VH: QVQLVQSGAEVKKPGASVKVSCKASGYTFTTYYIYWVRQAPGQGLEWMGGSNPSTGGTLFNEKFKTRVTMTRDTSTSTVYMELSSLRSEDTAVYYCARSGRYAPFTYWGQGTLVTVSS
VL: DIQMTQSPSSLSASVGDRVTITCKASQDVSTSVAWYQQKPGKAPKLLIYSASYRFTGVPSRFSGSGSGTDFTLTISSLQPEDFATYYCQQYSTTPFTFGQGTKLEIK
In [11], B6 returned a Kd of 0.512 nM, a koff of 0.0001 s⁻¹ and an on-rate constant (kon) of 196000 M⁻¹ s⁻¹.

B7: m27 (antibody, V domains shown)
VH: QVQLVQSGAEVKKPGASVKVSCKASGYTFTTYYIYWVRQAPGQGLEWMGGSNPSTGGTLENEKFKTRVTMTVDKSTSTAYMELSSLRSEDTAVYYCTRSGRYATFTYWGQGTLVTVSS
VL: DIQMTQSPSSLSASVGDRVTITCKASQDVSTSVAWYQQKPGKAPKLLIYSASYRFTGVPSRFSGSGSGTDFTFTISSLQPEDFATYYCVHYSTTPFTFGQGTKLEIK
notes: captured by anti-human Fc); also called m27 molecule
Consider B7, for which the “IC50(pM), hIL-4 Blocking Activity” value in [2] was determined as 249 pM. Moreover, the “IC50(pM) … TF-1 proliferation inhibition assay” value in test [3] was 58.8 pM. In test [7], this molecule yielded a Kd of 0.196 nM, a koff of 0.000112 s⁻¹ and a kon of 568000 M⁻¹ s⁻¹.

B8: m21 (antibody, V domains shown)
VH: QVQLVQSGAEVKKPGASVKVSCKASGYTFTTYYIYWVRQAPGQGLEWMGGSNPSTGGTLENEKFKTRVTMTVDKSTSTAYMELSSLRSEDTAVYYCTRSGRYAPFTYWGQGTLVTVSS
VL: DIQMTQSPSSLSASVGDRVTITCKASQDVSTSVAWYQQKPGKAPKLLIYSASYRFTGVPSRFSGSGSGTDFTFTISSLQPEDFATYYCVHYSTTPFTFGQGTKLEIK
notes: captured by anti-human Fc); also called m21 molecule
For the molecule B8, the “IC50(pM), hIL-4 Blocking Activity” value in test [2] was 286 pM. Further, the “IC50(pM) … TF-1 proliferation inhibition assay” value in test [3] came to 66.5 pM. In addition, in [7], the Kd was found to be 0.133 nM, the koff is 7.76e-05 s⁻¹ and the kon came out at 582000 M⁻¹ s⁻¹.

B9: 2.46.13-Murine (antibody, V domains shown)
VH: DVKLVESGGGLVKLGGSLKLSCAASGFTFSSYYMSWVRQTPEKRLELVAAINSNGGSTYSPDTVKGRFTISRDNAKNTLYLQMSSLKSEDTALYYCARRSLLGNHRDWYFDVWGAGTTVTVSS
VL: DIQMTQSPASLSASVGETVTITCRASENIYSYLAWYQQKQGKSPQLLVYNAKTLADGVPSRFSGSGSGTQFSLKINTLQPEDFGSYYCLHHYGTPLTFGAGTKLELK
notes: See recheck
For the molecule B9, the “IC50 (nM), Cell-based Assay Data” value in test [1] was found to be 2.23 nM. The same molecule came in with an EC50 in test [5] of 0.28 nM. In test [12], this molecule came in with an equilibrium dissociation constant (Kd) of 0.306 nM, a koff of 0.000118 s⁻¹ and a kon of 385000 M⁻¹ s⁻¹.

B10: 1.34.4-Murine (antibody, V domains shown)
VH: QVQLQQPGAELVKPGASMKLSCKASGYTFTTYYIYWVKQRPGQGLEWIGGSNPSTGGTLFNEKFKTKATLTVDKYSSTAYMELSSLTFEDSAVYFCTRSGRYAPFTYWGQGTLVTVSA
VL: DIVMTQSHKVLSTSVGDRVIITCKASQDVSTSVAWYQQRPGHSPKLLIYSASYRFTGVPDRFTGSGSGTDFTFTISSVQAEDLAVYNCQQYSTTPFTFGSGTKLEIK
notes: See recheck
Regarding B10, in test [1], the “IC50 (nM), Cell-based Assay Data” value was determined as 1.38 nM. For the same molecule, in test [5], the concentration giving a half-maximal response (EC50) came to 0.35 nM. For the same molecule, in [12], binding was put at a Kd of 0.369 nM, the koff was 0.000133 s⁻¹ and the kon was determined as 361000 M⁻¹ s⁻¹.
